{"source": "patent US11485776B2", "about": "“Antibodies against infectious diseases” (priority 2015, dated 2022)", "molecules": {"B1": {"name": "CaS1 scFv: anti-CaENO1 scFv monoclonal antibody from chicken phage library; light chain SEQ ID NO:11, heavy chain SEQ ID NO:12 (antibody, V domains shown)", "VH": "TVTLDESGGGLQTPRGALSLVCKASGFTFIDYGMQWVRQAPGKGLEWVAGIGSSGSSTNYGAAVKGRATISRDDGQSTVRLQLNNLRAEDTGTYYCAKSAGGYCVNGAGCNGGSIDAWGHGTEVIVSS", "VL": "ALTQPSSVSANLGGTVKITCSGGSGSYGWYQQKSPGSAPVTVIYSNNQRPSNIPSRFSGSPSGSTGTLTITGVQADDEAVYFCGSRDSSYVGVFGAGTTLTVL", "modifications": "scFv linker; amino acid sequence comprised in a heavy chain of an anti-CaENO1 scFv monoclonal antibody (CaS1); amino acid sequence comprised in a light chain of an anti-CaENO1 scFv monoclonal antibody (CaS1)"}}, "key": {"[1]": {"tested_on": "ENO1 proteins on Candida spp. (C. glabrate)", "assay_type": "binding", "from_the_text": "(§1) (A) The total cell lysates of 5 Candida spp. were visualized on SDS-PAGE (left). After transferred onto the NC membranes, they were probed with purified anti-CaENO1 from 7th immunized chicken (1:3,000) (middle), or with CaS1 scFv (right) as described in material and methods. Lanes 1-6 in (A) contained the total cell lysates of C. albicans, C. krusei, C. tropicalis, C. parapsilosis and C. glabrate and purified recombinant CaENO1, respectively. […] (C) Total cell lysate from FLU^R and FLU^s and C. tropicalis (lanes 1-5 represent CT6-29, CT11-52, CT6-50, CT12-54, BCRC20520, respectively) by SDS-PAGE (left) and probed with CaS1 scFv by Western blot (right). (D) The purified ENO1 proteins of C. albicans, S. pneumonia, S. aureus, mouse and human were visualized on SDS-PAGE (left). After transferred onto the NC membranes, they were probed with purified CaS1 scFv (right) as described. Lane M contained protein markers.\n(§2) To detect the presence of ENO1 proteins, the purified recombinant ENO1 protein or cell lysates of five Candida spp were subjected to SDS-PAGE analysis, transferred onto nitrocellulose membranes (Amersham Biosciences, UK) and then blocked with 5% skim milk in TBST for 1 hr. The anti-CaENO1 IgY from chicken after 7th immunization (1:3,000) or purified CaS1 scFv antibody (1 μg/ml) were added and incubated for 1 hr at room temperature. After vigorous washings, horseradish peroxidase (HRP)-conjugated polyclonal donkey anti-chicken IgY antibodies (1:3,000) (Bethyl Laboratories, Montgomery, Tex., USA) were added and incubated for an additional 1 hr for detecting the bound IgY antibodies. However, goat anti-chicken light chain antibodies (1:3,000) (Bethyl Laboratories, Montgomery, Tex., USA), followed by HRP-conjugated donkey anti-goat IgG antibodies (Jackson ImmunoResearch, USA) were used for detecting the bound scFv antibodies. After washings as above, the membranes were developed with diaminobenzidine (DAB) or ECL substrate. The ImageQuant LAS4500 was used for ECL intensity detection.\n(§3) This CaS1 scFv was evaluated for its binding activity to different species of Candida. Five common strains of Candida were obtained, total lysate of five species Candida were analyzed on SDS-PAGE (FIG. 6A left) and subsequent Western blot."}, "[2]": {"tested_on": "ENO1 proteins on Candida spp. (C. krusei)", "assay_type": "binding", "from_the_text": "as §1, §2, §3"}, "[3]": {"tested_on": "ENO1 proteins on Candida spp. (C. parapsilosis)", "assay_type": "binding", "from_the_text": "as §1, §2, §3"}, "[4]": {"tested_on": "ENO1 proteins on Candida spp. (C. tropicalis)", "assay_type": "binding", "from_the_text": "as §1, §2, §3"}, "[5]": {"biological_target": "T1, CaENO1 (Candida albicans, UniProt P30575)", "T1 construct": "using full-length CaENO1 (1323 bp) as template; His (N); made in house; host or cells: E. coli BL21", "T1 sequence (P30575 whole entry)": "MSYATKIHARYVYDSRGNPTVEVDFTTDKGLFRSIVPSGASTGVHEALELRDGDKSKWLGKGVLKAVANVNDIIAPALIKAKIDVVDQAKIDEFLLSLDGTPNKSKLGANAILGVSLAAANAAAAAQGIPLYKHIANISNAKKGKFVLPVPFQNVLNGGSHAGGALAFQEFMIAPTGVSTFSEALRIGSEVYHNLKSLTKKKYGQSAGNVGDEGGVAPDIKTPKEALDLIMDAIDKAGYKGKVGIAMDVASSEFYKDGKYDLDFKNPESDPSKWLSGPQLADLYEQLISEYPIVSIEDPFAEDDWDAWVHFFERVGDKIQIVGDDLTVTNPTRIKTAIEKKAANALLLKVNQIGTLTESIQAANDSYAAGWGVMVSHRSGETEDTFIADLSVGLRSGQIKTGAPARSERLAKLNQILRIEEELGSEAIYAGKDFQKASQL", "assay": "Western blot on purified ENO1 protein of C. albicans", "assay_type": "binding", "from_the_text": "as §1\nBriefly, C. albicans alpha-enolase genes were constructed in pQE30 plasmids to form pQE30-CaENO1 vector, and then the resulting vectors were transformed with E. coli BL21 cells. The bacterial culture was grown in 10 ml LB medium containing ampicillin ([…]) at 37° C. overnight, diluted 10-fold in the same LB medium and further grown until the OD600 reached between 0.6 and 1.0. […]"}, "[6]": {"biological_target": "T2, alpha-enolase on the surface of C. albicans (Candida albicans, UniProt P30575)", "T2 construct": "endogenous in cells; host or cells: C. albicans SC 5314 and clinical isolates CA6-17, CA7-26, CA7-3, CA10-50, CA7-30, CA10-65", "T2 sequence (P30575 whole entry)": "as above", "assay": "Immunofluorescence staining of C. albicans", "assay_type": "cell-based", "from_the_text": "Anti-CaENO1 antibodies were used to detect alpha-enolase protein on C. albicans cell surface ENO1. (1) Detected with anti-CaENO1 IgY and developed by FITC conjugation rabbit anti-chicken antibodies. (2) Detected with scFv CaS1 and developed by goat anti-chicken light chain antibodies and FITC rabbit anti-goat antibodies. (3) An irrelevant scFv was used on negative control.\nAnti-CaENO1 IgY, scFv CaS1 and control scFv were used in immunofluorescence assay for identification of CaS1 antibody to alpha-enolase on cell surface of C. albicans."}, "[7]": {"tested_on": "C. albicans", "assay": "C. albicans hyphal formation", "assay_type": "cell-based", "details": "CaS1 scFv pre-incubated with 10^3 cfu, 5 days at 37° C.", "description": "(A) C. albicans were cultured in YPD medium overnight at 37° C. 10^8 cfu/ml of C. albicans was mixed with equal volume of 0.5 mg/ml anti-CaENO1 IgY, 0.5 mg/ml CaS1 scFv or 1×PBS, respectively, at room temperature for 1 hr. 1 ul of each mixture in 10× dilutions was spotted on YPD agar plate and incubated at 37° C. overnight. (B) 10^3 cfu of C. albicans was mixed with PBS (control), 10 or 100 µg/ml CaS1 scFv at room temperature for 1 hr. 1 ul of each mixture was spotted on YPD agar plate and incubated at 37° C. for 5 days. The hyphal formation was observed under the microscope.\nTo determine the effect of scFv antibodies on the cell growth and hyphal formation, anti-CaENO1 IgY (0.5 mg/ml) or CaS1 scFv (0.5 mg/ml) or PBS were pre-incubated with C. albicans (1×10^6 cfu) for 1 hr at 37° C. After incubation, 1 ul of each mixture in 10-fold dilutions was spotted on YPD agar plate and incubated at 37° C. overnight. 10^3 cfu of C. albicans was mixed with 0 (1×PBS control), 10 or 100 µg/ml CaS1 scFv at room temperature for 1 hr. Thereafter, 1 ul of each mixture was spotted on YPD agar plate and incubated at 37° C. for 5 days. […].\nSo we further investigated whether CaS1 scFv affects the hyphal formation. We pre-incubated CaS1 scFv with C. albicans and the colony morphology was examined. […]"}}, "note": "“Also recorded” adds a separate entry of the source."}
{"molecule": "B1", "values": [{"measurement": "Binding to ENO1 in total cell lysate of C. glabrate (Western blot)", "setting": "[1]", "result": "cannot react"}, {"measurement": "Binding to fluconazole resistance and susceptible C. glabrate from clinic (Western blot)", "setting": "[1]", "result": "not"}, {"measurement": "Binding to ENO1 in total cell lysate of C. krusei (Western blot)", "setting": "[2]", "result": "cannot react"}, {"measurement": "Binding to ENO1 in total cell lysate of C. parapsilosis (Western blot)", "setting": "[3]", "result": "cannot react"}, {"measurement": "Binding to fluconazole resistance and susceptible C. parapsilosis from clinic (Western blot)", "setting": "[3]", "result": "not"}, {"measurement": "Binding to ENO1 in total cell lysate of C. tropicalis (Western blot)", "setting": "[4]", "result": "specifically recognized; also recorded: reacted"}, {"measurement": "Binding to fluconazole resistance and susceptible C. tropicalis from clinic (Western blot)", "setting": "[4]", "result": "binds; also recorded: can bind"}, {"measurement": "Binding to purified CaENO1 (Western blot)", "setting": "[5]", "result": "bind and recognizes"}, {"measurement": "Binding to alpha-enolase on the surface of C. albicans (immunofluorescence)", "setting": "[6]", "result": "bind"}, {"measurement": "Hyphal formation", "setting": "[7]", "result": "very little or none were observed"}]}
